Data reported in US20040038882A1, “Sgk2 and sgk3 used as diagnostic and therapeutic targets” (priority 2000, published 2004).

B1: hsgk2: human serum-and-glucocorticoid-dependent kinase 2, coexpressed in oocytes by mRNA injection (protein, UniProt Q9HBY8 1-367, looked up)
Serine/threonine-protein …: MNSSPAGTPSPQPSRANGNINLGPSANPNAQPTDFDFLKVIGKGNYGKVLLAKRKSDGAFYAVKVLQKKSILKKKEQSHIMAERSVLLKNVRHPFLVGLRYSFQTPEKLYFVLDYVNGGELFFHLQRERRFLEPRARFYAAEVASAIGYLHSLNIIYRDLKPENILLDCQGHVVLTDFGLCKEGVEPEDTTSTFCGTPEYLAPEVLRKEPYDRAVDWWCLGAVLYEMLHGLPPFYSQDVSQMYENILHQPLQIPGGRTVAACDLLQSLLHKDQRQRLGSKADFLEIKNHVFFSPINWDDLYHKRLTPPFNPNVTGPADLKHFDPEFTQEAVSKSIGCTPDTVASSSGASSAFLGFSYAPEDDDILDC
B2: hsgk3: human serum-and-glucocorticoid-dependent kinase 3, coexpressed in oocytes by mRNA injection (protein, UniProt Q96BR1 1-496, looked up)
Serine/threonine-protein …: MQRDHTMDYKESCPSVSIPSSDEHREKKKRFTVYKVLVSVGRSEWFVFRRYAEFDKLYNTLKKQFPAMALKIPAKRIFGDNFDPDFIKQRRAGLNEFIQNLVRYPELYNHPDVRAFLQMDSPKHQSDPSEDEDERSSQKLHSTSQNINLGPSGNPHAKPTDFDFLKVIGKGSFGKVLLAKRKLDGKFYAVKVLQKKIVLNRKEQKHIMAERNVLLKNVKHPFLVGLHYSFQTTEKLYFVLDFVNGGELFFHLQRERSFPEHRARFYAAEIASALGYLHSIKIVYRDLKPENILLDSVGHVVLTDFGLCKEGIAISDTTTTFCGTPEYLAPEVIRKQPYDNTVDWWCLGAVLYEMLYGLPPFYCRDVAEMYDNILHKPLSLRPGVSLTAWSILEELLEKDRQNRLGAKEDFLEIQNHPFFESLSWADLVQKKIPPPFNPNVAGPDDIRNFDTAFTEETVPYSVCVSSDYSIVNASVLEADDAFVGFSYAPPSEDLFL
B3: hsgk1: human serum-and-glucocorticoid-dependent kinase 1, coexpressed in oocytes by mRNA injection (protein, UniProt O00141 1-431, looked up)
Serine/threonine-protein …: MTVKTEAAKGTLTYSRMRGMVAILIAFMKQRRMGLNDFIQKIANNSYACKHPEVQSILKISQPQEPELMNANPSPPPSPSQQINLGPSSNPHAKPSDFHFLKVIGKGSFGKVLLARHKAEEVFYAVKVLQKKAILKKKEEKHIMSERNVLLKNVKHPFLVGLHFSFQTADKLYFVLDYINGGELFYHLQRERCFLEPRARFYAAEIASALGYLHSLNIVYRDLKPENILLDSQGHIVLTDFGLCKENIEHNSTTSTFCGTPEYLAPEVLHKQPYDRTVDWWCLGAVLYEMLYGLPPFYSRNTAEMYDNILNKPLQLKPNITNSARHLLEGLLQKDRTKRLGAKDDFMEIKSHVFFSLINWDDLINKKITPPFNPNVSGPNDLRHFDPEFTEEPVPNSIGKSPDSVLVTASVKEAAEAFLGFSYAPPTDSFL

Legend:
[1] = test system: epithelial Na^+-channel, α-ENaC, β-ENaC, and γ-ENaC (rENaC); assay: Dual-electrode voltage clip, amiloride-sensitive Na+-current in oocytes expressing ENaC; format: cell-based, Xenopus laevis; details: for activation of the Na^+-channel rENaC by hsgk2 and hsgk3: kinase inhibitor; for activation of the Na^+-channel rENaC by hsgk2 and hsgk3 / amiloride-inhibitable current, Iamil, through the Na^+-channel, rENaC: FIG. 1; for amiloride-inhibitable current, Iamil, through the Na^+-channel, rENaC: coexpression with kinase; for Na^+-current (INa): oocytes injected with α-ENaC, β-ENaC, and γ-ENaC plus kinase, mean ± SEM, n=7
Experimental: (§1) Each of the oocytes involved was injected with 1 ng cRNA from α-ENaC, β-ENaC, and γ-ENaC, Kv1.3, or minK, both with and without simultaneous injection of the kinases hsgk1, hsgk2, and hsgk3. Dual-electrode voltage-clip and current-clip experiments could be undertaken 2 to 4 days following injection. Na^+-currents (in the case of ENaC) and K^+-currents (in the case of Kv1.3 and minK) were filtered at 10 Hz and recorded using a recorder. The experiments were normally conducted on the second day following cRNA-injection. The bath solution contained 96 mM NaCl, 2 mM KCl, 1.8 mM CaCl2, 1 mM MgCl2, and 5 mM HEPES at a pH of 7.5 and a holding potential of −80 mV. In all experiments, bath pH was set by titration with HCl or NaOH. Bath-liquid flow rate was set to 20 ml/min, which provided for a complete change of solution within 10 to 15 seconds. All data were output in the form of arithmetic means±SEM.
(§2) In order to investigate the effects of hsgk1, hsgk2, or hsgk3, the mRNA of the respective kinases, together with the mRNA of the epithelial Na^+-channel, α-ENaC, β-ENaC, and γ-ENaC, or the voltage-dependent K^+-channel, Kv1.3, or the minK-channel, were injected into Xenopus oocytes and the amiloride-sensitive Na^+-current, INa, and voltage-activated K^+-current, IK, subsequently determined.

hsgk2 and hsgk3 = assay: Kinase inhibitors on hsgk stimulation of channel activity in oocytes; format: cell-based, Xenopus laevis; details: protein-kinase inhibitor added; Table 1, FIGS. 1 and 2
Experimental: as §1, §2

[2] = test system: human embryonic kidney cells (HEK-cells); assay: Survival of HEK-cells after extraction of fetal calf serum; format: cell-based; details: FCS extracted, FIG. 3
Experimental: According to FIG. 3, extracting fetal calf serum (FCS) from human embryonic kidney cells (HEK-cells) (Lewis, et al (1984); Phillips, et al (1982)) reduces the total number of cells present due to cell mortality, as may be seen by comparing the black bars to the dotted bars, where FIG. 3 depicts the situations after 24 hours and 48 hours, respectively. This reduction is lessened by the insulin-like growth factor (IGF1), represented by the white bars. The effect of IGF1 is eliminated by the simultaneous inhibition of K^+-channels using margatoxin (MT), represented by the hatched bars. […] The activation of the Kv1.3-channel mediated by sgk2 and sgk3 thus has an antiapoptotic effect, and lack of an sgk2-effect and sgk3-effect would thus cause an increase in cell mortality, as occurs in the case of, for example, neurodegeneration. Conversely, activators of sgk2 and sgk3 may be employed for preventing apoptotic cell death in the case of neurodegeneration. Since Kv1.3 also plays a major role in regulating lymphocyte proliferation and lymphocyte function, inhibitors or activators of these kinases may be employed for affecting the immune system in the case of, e.g., autoimmune diseases or immune deficiency.

[3] = test system: voltage-dependent K^+-channel, Kv1.3; assay: Dual-electrode voltage clip, voltage-activated K+-current in oocytes expressing Kv1.3; format: cell-based, Xenopus laevis; details: oocytes injected with Kv1.3 plus kinase; mean ± SEM, n=7
Experimental: as §1, §2

minK-channel = assay: Dual-electrode voltage clip, K+-current in oocytes expressing minK; format: cell-based, Xenopus laevis; details: oocytes injected with minK plus kinase; mean ± SEM, n=7
Experimental: as §1, §2

Molecule	Na^+-current (INa) [1]	K^+-current (IK), Kv1.3 [3]	K^+-current (IK), MinK (minK-channel)	other results
CN[C@@H]1C[C@H]2O[C@@](C)([C@@H]1OC)n1c3ccccc3c3c4c(c5c6ccccc6n2c5c31)C(=O)NC4 [staurosporine, reference compound]	–	–	–	activation of the Na^+-channel rENaC by hsgk2 and hsgk3 [1]: inhibit activation of the Na^+-channel; stimulating effects of hsgk on ENaC-activity, Kv1.3-activity and minK-activity (hsgk2 and hsgk3): totally prevented
IGF1: insulin-like growth factor	–	–	–	reduction of total number of cells due to cell mortality ([2]; after 24 hours and 48 hours): lessened
margatoxin (TIINVKCTSPKQCLPPCKAQFGQSAGAKCMNGKCKCYPH; UniProt P40755 1-39, looked up) [reference compound]	–	–	–	effect of IGF1 on cell-number reduction ([2]; IGF1 plus simultaneous inhibition of K^+-channels, 24 and 48 hours): eliminated
COc1ccc2c(c[n+](C)c3c4cc5c(cc4ccc23)OCO5)c1OC [chelerythrine, reference compound]	–	–	–	activation of the Na^+-channel rENaC by hsgk2 and hsgk3 [1]: inhibit activation of the Na^+-channel; stimulating effects of hsgk on ENaC-activity, Kv1.3-activity and minK-activity (hsgk2 and hsgk3): totally prevented
B1	9.4 ± 1.7 μA	6.5 ± 0.6 μA	0.97 ± 0.1 μA	amiloride-inhibitable current, Iamil, through the Na^+-channel, rENaC [1]: increased significantly
B2	4.5 ± 0.8 μA	8.2 ± 0.7 μA	1.1 ± 0.11 μA	amiloride-inhibitable current, Iamil, through the Na^+-channel, rENaC [1]: increased significantly
B3	5.9 ± 1.0 μA	8.4 ± 1.8 μA	1.16 ± 0.11 μA	–
